Experimental data: article PMC9984183 (Science Advances, 2023)

Target: human secretory pathway Ca2+/Mn2+ ATPase 1, isoform 1a (SPCA1a), PA-tagged (human, UniProt P98194)
Test: SEC

Chain of human secretory pathway Ca2+/Mn2+ ATPase 1, isoform 1a (SPCA1a), PA-tagged (P98194 whole entry, canonical isoform): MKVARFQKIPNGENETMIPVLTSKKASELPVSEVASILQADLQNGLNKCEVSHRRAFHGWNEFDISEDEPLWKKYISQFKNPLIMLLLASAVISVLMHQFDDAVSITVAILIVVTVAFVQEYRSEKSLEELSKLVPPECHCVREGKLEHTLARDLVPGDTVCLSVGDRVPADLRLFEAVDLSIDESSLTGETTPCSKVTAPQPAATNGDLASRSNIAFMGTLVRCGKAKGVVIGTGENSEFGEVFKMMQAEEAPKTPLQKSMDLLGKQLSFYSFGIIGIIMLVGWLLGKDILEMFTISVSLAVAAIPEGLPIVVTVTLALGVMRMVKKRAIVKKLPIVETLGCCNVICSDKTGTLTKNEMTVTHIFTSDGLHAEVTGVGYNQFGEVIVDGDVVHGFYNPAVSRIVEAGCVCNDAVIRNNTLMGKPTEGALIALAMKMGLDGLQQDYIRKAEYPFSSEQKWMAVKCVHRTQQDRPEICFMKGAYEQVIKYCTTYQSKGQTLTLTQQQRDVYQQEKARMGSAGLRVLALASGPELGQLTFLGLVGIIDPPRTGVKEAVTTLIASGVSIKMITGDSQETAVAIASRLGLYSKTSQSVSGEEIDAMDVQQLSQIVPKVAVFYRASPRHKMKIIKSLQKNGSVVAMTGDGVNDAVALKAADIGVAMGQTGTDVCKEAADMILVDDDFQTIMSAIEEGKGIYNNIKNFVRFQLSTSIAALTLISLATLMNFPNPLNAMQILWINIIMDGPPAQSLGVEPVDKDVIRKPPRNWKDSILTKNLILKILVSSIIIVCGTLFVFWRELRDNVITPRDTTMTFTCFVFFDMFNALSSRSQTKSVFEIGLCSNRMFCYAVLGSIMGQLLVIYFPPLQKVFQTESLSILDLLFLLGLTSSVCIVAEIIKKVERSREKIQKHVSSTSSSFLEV

B1: nanobody 14 (Nb14), recombinant (VHH)
VHH: QVQLQESGGGLVQAGGSLRLSCAASGSIFGADWMGWYRQAPGKEREFVAGIGHGASTYYADSVKGRFTISRDNAKNTVYLQMNSLKPEDTAVYYCAVQYTQGWSGQYRSYDSLLYWGQGTQVTVSS
- binding result: binds
